Like-named read-outs stand apart in the source and are kept apart here.

The target in assay [1] is GFP-G3BP1(ΔRG). The assay can be described thus: SEC. (SEC sorts molecules by how far they enter the pores of the column.)
For assay [2], the target named is GFP-G3BP1(ΔRG).

For the substance GFP-G3BP1(ΔRG) (domain or fragment), the stoichiometry N in assay [1] and in assay [2] was 2 each time.

These data come from paper PMC7181197.
